The text below walks through data of the supplement of paper PMC12042874.

The series in a line: amyloid nucleation score (Sup35N fusion, yeast selection) (log enrichment); library NNK3; higher = more nucleation; inactive = no reads after selection. The gist of the method:
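Using DiMSum, nucleation scores were taken as the log enrichment of output over input reads, centred on the mode score of non-aggregating sequences. The input and output reads came from Illumina sequencing of plasmid inserts, with sequences under 100 input reads excluded. The yeast were psi-negative, expressed Sup35N fused to peptides of 20 random codons, were induced with 100 μM copper sulfate for 24 hours, and were grown 7 days at 30°C on medium lacking adenine and uracil.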

± gives the uncertainty stated by the source.

Consider VLCFI, for which the amyloid nucleation score entry is “inactive”.

For GDYDTMAEVKPFLDEKC, the amyloid nucleation score result is “inactive”.

Consider DMQHPFDFKRQ, for which the amyloid nucleation score entry was “inactive”.

Consider TIHYG, for which the amyloid nucleation score result was “inactive”.

In the case of DLLWLLFGLTSDLQFFIRYK, the amyloid nucleation score entry was “inactive”.

GFGHGLKFRPRDRWGSIYPY: the amyloid nucleation score entry is “inactive”.

Take SIRISLEISGYSELSITFSC: the amyloid nucleation score result is “inactive”.

With MGADGSLRALKRARS, the amyloid nucleation score result was “inactive”.

On to LRGAVVVSEKTRVTTQCIAR, for which the amyloid nucleation score result is “inactive”.

With GLGSFLRQRRACPSGGTQ, the amyloid nucleation score result was “inactive”.

As for LPWTLGVFGLMY, the amyloid nucleation score result is “inactive”.

On to FSAIWMSRQSYLRINGSPAF, for which the amyloid nucleation score is 0.088 ± 0.29.

AIINSVREPWAPAMAHTNNA: the amyloid nucleation score was found to be 0.586 ± 0.21.

For the substance FLHVRLRHSWVV, the amyloid nucleation score entry is “inactive”.

In the case of ELIDFTIGLL, the amyloid nucleation score result is “inactive”.

In the case of VMCVGYGTSRYSWVAFGLDK, the amyloid nucleation score entry is “inactive”.

With HNGDRVDY, the amyloid nucleation score result is “inactive”.

Consider GFAGMLYDLLPFGNWSLPSH, for which the amyloid nucleation score is -0.127 ± 0.75.

NPSTLYCGSLHSLVLRSFLI: the amyloid nucleation score entry is “inactive”.

With SDYTYFYM, the amyloid nucleation score entry is “inactive”.

Take GYPVWYVDLFSAKVRMQ: the amyloid nucleation score result was “inactive”.

On to NDGLAQSNIEIKDYRCRQNY, for which the amyloid nucleation score result is “inactive”.

As for PIPLIPFE, the amyloid nucleation score result is “inactive”.

As for STRTWQRF, the amyloid nucleation score was -0.014 ± 0.28.

On to RYNNYTSESGPCN, for which the amyloid nucleation score entry is “inactive”.

On to IKFGLTYSRSTMSGHSLKGY, for which the amyloid nucleation score result is “inactive”.

In turn, SEAIFMVVGVRYEMELRWM displayed an amyloid nucleation score of -0.55 ± 1.4.

Turning to HVTPRKN, the amyloid nucleation score result was “inactive”.

Turning to DWVGRYSVSMWILIGRGSLW, the amyloid nucleation score result was “inactive”.

VLSEESNYAKM: the amyloid nucleation score entry is “inactive”.

For PTFVPARSRYSLNVFNPLDE, the amyloid nucleation score entry is “inactive”.

As for VASCMTGWLILDETMSSFKL, the amyloid nucleation score is -0.746 ± 0.98.

Regarding ESMTSNYYQMIGVFCEMLVR, the amyloid nucleation score result is “inactive”.

In the case of ETGLLFGWDRVSSYWGVLKT, the amyloid nucleation score result is “inactive”.

As to SLGMMVWVH, the amyloid nucleation score result was “inactive”.

As for SLLDDRSPGLWILKTKVTAF, the amyloid nucleation score entry is “inactive”.

As to FNVYFGAIVFKEDLPCSYSA, the amyloid nucleation score is 1.23 ± 0.12.

As for TRVIRLGGMALSFVFTIISC, the amyloid nucleation score entry was “inactive”.

Turning to SKDGSSSTRQVTIVGRVLVF, the amyloid nucleation score entry was “inactive”.

Regarding CVGGSVFVACMLRSRVWGWC, the amyloid nucleation score result was “inactive”.

Regarding MRAIMWFINKDLLLTCGDDS, the amyloid nucleation score result was “inactive”.

For DTQSKTRRV, the amyloid nucleation score entry is “inactive”.

Regarding SMKQMNMQHSSPRNRTDGRR, the amyloid nucleation score result is “inactive”.

On to SFSFVVPQARYFPTC, for which the amyloid nucleation score entry was “inactive”.

RAMCTALTSGTYRTCC: the amyloid nucleation score entry is “inactive”.

Consider IPQNNLSDWLKCQMILVKEY, for which the amyloid nucleation score result is “inactive”.

As for RYGTLGDLV, the amyloid nucleation score entry was “inactive”.

As for IIMISLITYFLSLNTSKLYQ, the amyloid nucleation score entry is “inactive”.

Regarding NYGPGHRGGSN, the amyloid nucleation score result was “inactive”.

KPVLVVVSNLIPWSYPE displayed an amyloid nucleation score of 2.25 ± 0.085.

With SYFNRYRCSSCHKPGYDHTW, the amyloid nucleation score entry is “inactive”.

With VDFLCNPWVERINGYVWEVV, the amyloid nucleation score entry is “inactive”.

On to TSRHVLR, for which the amyloid nucleation score is -0.187 ± 0.66.

Consider MMGSVQLVHSIEYSCMHGTS, for which the amyloid nucleation score result was “inactive”.

ETTYGFDKIYGVEYVCGLCR: the amyloid nucleation score result was “inactive”.

With MSDWLDELVGSPMSKREVCR, the amyloid nucleation score entry was “inactive”.

TLSWNISCVCSERPFFNMHV: the amyloid nucleation score result was “inactive”.

For YRRSGTYMSDSGVLVVKVCV, the amyloid nucleation score entry was “inactive”.

For the substance KRCPWVRNKSVSYLTSKYKL, the amyloid nucleation score result was “inactive”.

For the substance AWLMRLMSYLGSSGWE, the amyloid nucleation score result was “inactive”.

As for MVLYRFCIVIHWTCTV, the amyloid nucleation score entry was “inactive”.

In turn, KTTTY registered an amyloid nucleation score of -0.2 ± 0.54.

As for SWVHVSTFWYVAFGFEKSAG, the amyloid nucleation score result was “inactive”.

For the substance RYSRWLGT, the amyloid nucleation score result was “inactive”.

On to NFVVKCICWAYFPHVDGFYF, for which the amyloid nucleation score entry is “inactive”.

Consider SRRLVKESDDRGCCRGLFWD, for which the amyloid nucleation score result is “inactive”.

For KEAVFIFSTHSGFLALFCMM, the amyloid nucleation score entry is “inactive”.

For SLPWVIF, the amyloid nucleation score entry was “inactive”.

For ICDLSREYSNHGFVLMDEIR, the amyloid nucleation score entry is “inactive”.

On to GLRKMRGLTQ, for which the amyloid nucleation score entry is “inactive”.

In the case of VAPGDPNMIGHGLHVFTTTL, the amyloid nucleation score is -0.498 ± 0.83.

VSLTFVVCRALFLSFTW: the amyloid nucleation score entry is “inactive”.

As for IDVKMGSYFVYHDGLFIFRV, the amyloid nucleation score result was “inactive”.

Regarding YPGTASAG, the amyloid nucleation score entry is “inactive”.

Consider VSLCIDRSMRCPRLVCVERG, for which the amyloid nucleation score entry is “inactive”.

With RPRQSTIMKNDTSSVAVSGL, the amyloid nucleation score was -0.582 ± 1.1.

As for FGSPWPRLQMTQLLIVAMTL, the amyloid nucleation score result is “inactive”.

In the case of FSITSADGCCSHLLRMYTNG, the amyloid nucleation score result is “inactive”.

Consider ISTKGITTRSLLDFKILCIT, for which the amyloid nucleation score result was “inactive”.

Consider GSCSIGSINIAFASSSIVYG, for which the amyloid nucleation score result was “inactive”.

On to RRVSMPLSGDKSRSVEGVRR, for which the amyloid nucleation score entry was “inactive”.

Take TARHKHGLSLCDGVADLRGC: the amyloid nucleation score result was “inactive”.

LIHVGRFTVRTKL: the amyloid nucleation score result is “inactive”.

THRFVVLCEIITNPTEMGSG: the amyloid nucleation score was determined as 0.703 ± 0.35.

In the case of CTTDRGVVLWVCRNG, the amyloid nucleation score entry is “inactive”.

Turning to CFDFSCVFLKEMQYGGETGS, the amyloid nucleation score was 1.07 ± 0.12.

Consider IHLRDMSLS, for which the amyloid nucleation score is 0.591 ± 0.16.

With RVMRMLSIVWFRWNEIVIFL, the amyloid nucleation score result was “inactive”.

On to LNTCNVFKYFVSGKRFREVG, for which the amyloid nucleation score entry is “inactive”.

With GCIDEDCGVLIIKFYNIRRY, the amyloid nucleation score came out at 0.118 ± 0.59.

In turn, NINVRTELVQRKGNILP yielded an amyloid nucleation score of 0.213 ± 0.17.

SVDSREMHSVCCKSLLFGFD: the amyloid nucleation score result is “inactive”.

On to ASRIDNIDWGGRKKLRNVEG, for which the amyloid nucleation score result is “inactive”.

Consider VIRNYTIEIMWVWDQKADVQ, for which the amyloid nucleation score result is “inactive”.

For the substance SKSLMMDLCTYCHYLNVYRE, the amyloid nucleation score entry was “inactive”.

EYYGRVLSLTVTNIHFFRVF: the amyloid nucleation score result was “inactive”.

As for TVDNHGSA, the amyloid nucleation score entry is “inactive”.

On to RRYGYNLVTL, for which the amyloid nucleation score result was “inactive”.

Turning to FVVCSAM, the amyloid nucleation score entry was “inactive”.

Regarding FMSTDTLRKCLSACMFGPIP, the amyloid nucleation score was found to be 0.021 ± 0.31.

For TMLLLWYLHWSPAPRDCYLP, the amyloid nucleation score result is “inactive”.

On to RVRNSCSVIGMWMLVYSRMI, for which the amyloid nucleation score result was “inactive”.

In the case of RPNVDWKMPRFCFPSQSKTG, the amyloid nucleation score entry was “inactive”.

Consider RLYVLAGITLTMTSTTKRSL, for which the amyloid nucleation score result was “inactive”.

In the case of PLKIYIGNQLV, the amyloid nucleation score entry was “inactive”.

In the case of FQAYDSWNNWSSGFILKYSI, the amyloid nucleation score entry is “inactive”.

For NFWFCLISYCESFSMISERG, the amyloid nucleation score result is “inactive”.

On to TINDLSCGASRDGWMPVYS, for which the amyloid nucleation score result is “inactive”.

For FLGLLLIYQPNSIE, the amyloid nucleation score result is “inactive”.

Substance CSLGLLMVQRERC showed an amyloid nucleation score of 1.38 ± 0.098.

On to VYYFRQLFPICIDNQARTWC, for which the amyloid nucleation score entry was “inactive”.

Turning to VGFPESPFDSLCAMCALQWV, the amyloid nucleation score entry is “inactive”.

As to FLVFGYASVGAIETWDKTAE, the amyloid nucleation score result is “inactive”.

Regarding SAVLPLALVGHDTPNRAQLN, the amyloid nucleation score result is “inactive”.

On to IDGTCFARIFRCCIFYLR, for which the amyloid nucleation score result is “inactive”.

On to WTVIDYDKTWIYLLASVLYL, for which the amyloid nucleation score entry was “inactive”.

In the case of TVFCLVKFRLEFYVTMPEYC, the amyloid nucleation score result is “inactive”.

With MRMVTSCTISF, the amyloid nucleation score result was “inactive”.

On to FWGSTWSLRVL, for which the amyloid nucleation score entry is “inactive”.

Consider HCNEYSGNVVSRG, for which the amyloid nucleation score result was “inactive”.

With SMFKLMRP, the amyloid nucleation score entry is “inactive”.

RDCICSRYIYGLRLSVLIWN came in with an amyloid nucleation score of -0.44 ± 0.66.

For DKFMWVGNSCVHSD, the amyloid nucleation score result was “inactive”.

For SRSMDGSVCAFRMDMSSMD, the amyloid nucleation score entry is “inactive”.

For the substance WRRCMRYGTASASSSENAHY, the amyloid nucleation score was 0.837 ± 0.18.

As for KRLVMWPRLRSRYWHKRAEQ, the amyloid nucleation score result is “inactive”.

Consider LWYVDTGAIILG, for which the amyloid nucleation score entry was “inactive”.

In the case of ENVARGAMFCPMHRGFQSSE, the amyloid nucleation score result is “inactive”.

YQIFYSEVSFLMAG: the amyloid nucleation score entry was “inactive”.

Consider VDINRFMEPLSCVRCCDDSC, for which the amyloid nucleation score entry is “inactive”.
